Experimental data taken from patent US10562947B2, “Compositions and methods for preventing or treating diseases, conditions or processes characterized by aberrant fibroblast proliferation and extracellular matrix deposition” (MOERAE MATRIX, INC., priority 2011, dated 2020).

Tests used:
Assay in all cases: Kinase Profiling Assay
Assay type in all cases: biochemical
Conditions in all cases: 100 μM peptide
ASK1(h) = target: T1, ASK1(h) (Homo sapiens, UniProt Q99683)
T1 sequence (Q99683 1-1374): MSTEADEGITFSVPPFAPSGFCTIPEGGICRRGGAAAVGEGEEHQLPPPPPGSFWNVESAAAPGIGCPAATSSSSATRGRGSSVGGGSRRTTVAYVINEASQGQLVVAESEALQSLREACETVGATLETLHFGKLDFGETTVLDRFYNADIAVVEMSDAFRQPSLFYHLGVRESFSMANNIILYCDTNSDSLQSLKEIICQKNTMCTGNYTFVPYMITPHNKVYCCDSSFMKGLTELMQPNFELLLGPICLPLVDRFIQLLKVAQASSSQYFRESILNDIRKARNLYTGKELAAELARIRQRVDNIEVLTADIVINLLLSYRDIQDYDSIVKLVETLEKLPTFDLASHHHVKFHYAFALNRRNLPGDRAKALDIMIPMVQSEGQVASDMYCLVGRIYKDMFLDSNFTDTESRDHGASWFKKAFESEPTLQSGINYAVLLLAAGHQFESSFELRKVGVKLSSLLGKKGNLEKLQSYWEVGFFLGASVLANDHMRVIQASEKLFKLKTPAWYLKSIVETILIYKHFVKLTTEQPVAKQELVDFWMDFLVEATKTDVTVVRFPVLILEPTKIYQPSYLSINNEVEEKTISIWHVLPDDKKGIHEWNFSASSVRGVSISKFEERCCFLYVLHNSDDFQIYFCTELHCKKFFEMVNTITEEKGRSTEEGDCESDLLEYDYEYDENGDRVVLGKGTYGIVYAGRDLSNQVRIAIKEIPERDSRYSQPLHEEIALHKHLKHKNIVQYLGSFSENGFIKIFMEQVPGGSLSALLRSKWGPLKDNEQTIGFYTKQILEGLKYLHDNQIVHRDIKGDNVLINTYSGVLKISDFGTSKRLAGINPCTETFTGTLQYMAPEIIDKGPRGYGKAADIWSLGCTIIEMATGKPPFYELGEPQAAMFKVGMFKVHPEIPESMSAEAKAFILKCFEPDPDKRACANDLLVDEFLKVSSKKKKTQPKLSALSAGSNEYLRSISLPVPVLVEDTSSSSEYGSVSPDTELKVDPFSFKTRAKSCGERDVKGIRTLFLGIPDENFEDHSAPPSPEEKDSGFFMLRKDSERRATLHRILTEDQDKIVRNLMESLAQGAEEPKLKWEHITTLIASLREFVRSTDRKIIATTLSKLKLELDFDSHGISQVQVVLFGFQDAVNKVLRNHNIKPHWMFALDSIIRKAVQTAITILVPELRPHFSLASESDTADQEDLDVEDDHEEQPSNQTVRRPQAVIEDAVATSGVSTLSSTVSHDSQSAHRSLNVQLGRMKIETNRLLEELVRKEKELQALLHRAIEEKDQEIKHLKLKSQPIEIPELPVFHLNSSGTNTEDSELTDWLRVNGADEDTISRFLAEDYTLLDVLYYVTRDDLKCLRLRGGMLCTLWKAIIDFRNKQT
Method in brief: (§1)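 MK2 inhibitory peptides were screened for specificity across a commercial panel of 266 human kinases, and each kinase activity measurement was run in duplicate.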

CLK3(h) = CLK3(h) (Homo sapiens, UniProt P49761)
Sequence of CLK3(h) (P49761 whole entry): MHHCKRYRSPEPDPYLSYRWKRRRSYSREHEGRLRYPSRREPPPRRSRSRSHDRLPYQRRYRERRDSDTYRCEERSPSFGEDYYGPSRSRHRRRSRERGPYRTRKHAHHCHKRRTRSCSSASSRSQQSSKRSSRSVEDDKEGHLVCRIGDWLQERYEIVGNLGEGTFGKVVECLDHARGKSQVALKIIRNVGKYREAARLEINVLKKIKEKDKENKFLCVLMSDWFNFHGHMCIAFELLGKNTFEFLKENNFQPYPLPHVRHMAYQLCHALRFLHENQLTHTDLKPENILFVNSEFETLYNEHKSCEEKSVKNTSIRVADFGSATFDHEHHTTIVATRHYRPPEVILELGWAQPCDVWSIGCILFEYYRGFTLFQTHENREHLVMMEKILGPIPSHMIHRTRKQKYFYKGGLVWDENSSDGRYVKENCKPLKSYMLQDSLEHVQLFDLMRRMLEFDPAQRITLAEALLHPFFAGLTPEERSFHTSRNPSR
Method in brief: as §1

Flt3(D835Y)(h) = Flt3(D835Y)(h) (Homo sapiens, UniProt P36888, D835Y)
Method in brief: as §1

Fyn(h) = Fyn(h) (Homo sapiens, UniProt P06241)
Sequence of Fyn(h) (P06241 whole entry): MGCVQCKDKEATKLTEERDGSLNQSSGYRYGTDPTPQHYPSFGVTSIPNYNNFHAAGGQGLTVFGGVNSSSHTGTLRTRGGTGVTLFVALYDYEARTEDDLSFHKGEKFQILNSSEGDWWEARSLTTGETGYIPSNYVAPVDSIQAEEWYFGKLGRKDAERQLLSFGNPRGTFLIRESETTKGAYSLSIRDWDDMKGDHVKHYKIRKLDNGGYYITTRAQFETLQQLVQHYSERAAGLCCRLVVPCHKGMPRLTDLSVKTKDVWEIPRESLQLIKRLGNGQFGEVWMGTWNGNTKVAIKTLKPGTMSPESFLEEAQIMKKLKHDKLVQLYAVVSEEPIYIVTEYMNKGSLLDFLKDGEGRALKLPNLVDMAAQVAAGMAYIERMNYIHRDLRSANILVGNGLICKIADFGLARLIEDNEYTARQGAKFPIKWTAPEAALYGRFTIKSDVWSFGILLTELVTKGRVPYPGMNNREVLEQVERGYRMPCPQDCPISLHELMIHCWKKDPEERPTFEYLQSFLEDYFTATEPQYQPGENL
Method in brief: as §1

GSK3β(h) = target: T2, GSK3β(h) (Homo sapiens, UniProt P49841)
T2 construct: purchased Millipore
T2 sequence (P49841 whole entry): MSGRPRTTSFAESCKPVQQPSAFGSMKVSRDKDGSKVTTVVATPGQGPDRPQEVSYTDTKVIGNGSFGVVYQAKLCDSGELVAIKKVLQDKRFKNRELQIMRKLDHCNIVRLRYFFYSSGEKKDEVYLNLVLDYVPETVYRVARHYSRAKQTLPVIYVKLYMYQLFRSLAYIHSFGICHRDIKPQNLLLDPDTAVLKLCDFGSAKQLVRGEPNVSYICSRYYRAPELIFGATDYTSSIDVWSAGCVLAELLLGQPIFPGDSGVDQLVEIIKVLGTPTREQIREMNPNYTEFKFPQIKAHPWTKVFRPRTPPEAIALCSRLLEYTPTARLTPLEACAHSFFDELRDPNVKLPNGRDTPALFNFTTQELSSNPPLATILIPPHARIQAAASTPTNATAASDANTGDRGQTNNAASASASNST
Method in brief: as §1

Met(M1268T)(h) = Met(M1268T)(h) (Homo sapiens, UniProt P08581, M1250T)
Method in brief: as §1

SRPK1(h) = SRPK1(h) (Homo sapiens, UniProt Q96SB4)
Sequence of SRPK1(h) (Q96SB4 whole entry): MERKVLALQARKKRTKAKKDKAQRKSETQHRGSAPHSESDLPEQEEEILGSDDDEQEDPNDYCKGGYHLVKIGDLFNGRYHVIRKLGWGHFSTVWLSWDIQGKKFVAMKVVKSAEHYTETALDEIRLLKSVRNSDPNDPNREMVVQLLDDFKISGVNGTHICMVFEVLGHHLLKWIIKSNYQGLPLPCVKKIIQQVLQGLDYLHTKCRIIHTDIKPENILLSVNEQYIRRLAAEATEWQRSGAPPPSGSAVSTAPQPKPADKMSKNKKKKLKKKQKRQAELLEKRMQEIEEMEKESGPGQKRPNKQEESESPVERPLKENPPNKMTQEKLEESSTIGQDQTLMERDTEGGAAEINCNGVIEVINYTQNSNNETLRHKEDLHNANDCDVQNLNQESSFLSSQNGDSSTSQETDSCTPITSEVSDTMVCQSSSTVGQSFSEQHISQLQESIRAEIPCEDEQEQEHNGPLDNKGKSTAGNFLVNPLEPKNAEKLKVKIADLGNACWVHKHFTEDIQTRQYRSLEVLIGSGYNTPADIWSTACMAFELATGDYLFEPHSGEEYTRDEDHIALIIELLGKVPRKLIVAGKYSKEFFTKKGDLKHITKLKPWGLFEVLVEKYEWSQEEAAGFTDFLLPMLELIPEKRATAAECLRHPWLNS
Method in brief: as §1

TAO3(h) = target: T3, TAO3(h) (Homo sapiens, UniProt Q9H2K8)
T3 sequence (Q9H2K8 1-898): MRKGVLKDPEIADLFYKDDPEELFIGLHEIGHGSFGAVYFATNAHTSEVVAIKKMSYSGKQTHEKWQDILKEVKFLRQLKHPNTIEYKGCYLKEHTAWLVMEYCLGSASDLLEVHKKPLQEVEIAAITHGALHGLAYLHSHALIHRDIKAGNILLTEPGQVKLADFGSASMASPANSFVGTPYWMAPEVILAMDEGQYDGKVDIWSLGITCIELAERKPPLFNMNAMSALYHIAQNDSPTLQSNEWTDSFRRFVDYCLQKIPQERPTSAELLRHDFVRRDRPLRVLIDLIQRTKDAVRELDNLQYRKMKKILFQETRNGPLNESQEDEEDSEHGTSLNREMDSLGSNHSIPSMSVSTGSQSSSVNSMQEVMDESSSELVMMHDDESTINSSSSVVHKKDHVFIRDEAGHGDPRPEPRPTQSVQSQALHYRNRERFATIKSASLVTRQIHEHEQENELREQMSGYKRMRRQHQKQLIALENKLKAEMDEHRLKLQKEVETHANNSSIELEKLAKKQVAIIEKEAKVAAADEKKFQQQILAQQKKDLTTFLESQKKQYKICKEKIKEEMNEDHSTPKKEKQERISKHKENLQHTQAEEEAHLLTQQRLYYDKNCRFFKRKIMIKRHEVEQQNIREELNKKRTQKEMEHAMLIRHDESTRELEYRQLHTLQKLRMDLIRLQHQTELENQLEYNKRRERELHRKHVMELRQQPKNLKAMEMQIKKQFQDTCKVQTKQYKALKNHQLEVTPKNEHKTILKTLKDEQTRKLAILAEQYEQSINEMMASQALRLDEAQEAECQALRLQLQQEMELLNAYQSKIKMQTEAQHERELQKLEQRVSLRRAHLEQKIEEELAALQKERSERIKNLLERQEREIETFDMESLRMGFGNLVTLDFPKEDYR
Method in brief: as §1

cSRC(h) = cSRC(h) (Homo sapiens, UniProt P12931)
Method in brief: as §1

FAKLAARLYRKALARQLGVAA [MMI-0300]
ASK1(h) % activity (ASK1(h)): 80%
CLK3(h) % activity (CLK3(h)): 61%
Flt3(D835Y)(h) % activity (Flt3(D835Y)(h)): 80%
Fyn(h) % activity (Fyn(h)): 74%
GSK3β(h) % activity (GSK3β(h)): 205%
Met(M1268T)(h) % activity (Met(M1268T)(h)): 255%
SRPK1(h) % activity (SRPK1(h)): 90%
TAO3(h) % activity (TAO3(h)): 77%
cSRC(h) % activity (cSRC(h)): 26%

KAFAKLAARLYRKALARQLGVAA [MMI-0400]
ASK1(h) % activity (ASK1(h)): 69%
CLK3(h) % activity (CLK3(h)): 84%
Flt3(D835Y)(h) % activity (Flt3(D835Y)(h)): 71%
Fyn(h) % activity (Fyn(h)): 54%
GSK3β(h) % activity (GSK3β(h)): 202%
Met(M1268T)(h) % activity (Met(M1268T)(h)): 265%
SRPK1(h) % activity (SRPK1(h)): 96%
TAO3(h) % activity (TAO3(h)): 67%
cSRC(h) % activity (cSRC(h)): 14%

YARAAARQARAKALNRQLGVA (Mammalian) [MMI-0200]
ASK1(h) % activity (ASK1(h)): 101%
CLK3(h) % activity (CLK3(h)): 76%
Fyn(h) % activity (Fyn(h)): 75%
GSK3β(h) % activity (GSK3β(h)): 132%
Met(M1268T)(h) % activity (Met(M1268T)(h)): 143%
SRPK1(h) % activity (SRPK1(h)): 93%
cSRC(h) % activity (cSRC(h)): 32%

HRRIKAWLKKIKALARQLGVAA (Mammalian) [MMI-0500]
ASK1(h) % activity (ASK1(h)): −4%
CLK3(h) % activity (CLK3(h)): 76%
Flt3(D835Y)(h) % activity (Flt3(D835Y)(h)): 65%
Fyn(h) % activity (Fyn(h)): 83%
GSK3β(h) % activity (GSK3β(h)): 238%
Met(M1268T)(h) % activity (Met(M1268T)(h)): 239%
SRPK1(h) % activity (SRPK1(h)): 80%
TAO3(h) % activity (TAO3(h)): 12%
cSRC(h) % activity (cSRC(h)): 30%
